# Laboratory results published in paper PMC6954390, “Negative cooperativity between Gemin2 and RNA provides insights into RNA selection and the SMN complex's release in snRNP assembly”.
# Numbering of substitutions follows the chain as printed.
# B1: flU4 (structured_RNA)
# RNA: GGGCAGCUUUGCGCAGUGGCAGUAUCGUAGCCAAUGAGGUCUAUCCGAGGCGCGAUUAUUGCUAAUUGAAAACUUUUCCCAAUACCCCGCCGUGACGACUUGCAAUAUAGUCGGCACUGGCAAUUUUUGACAGUCUCUACGGAGACUG
# B2: flU4-spacer (structured_RNA)
# RNA: B1 RNA with G119C, G120C, C121G
# B3: U4 (structured_RNA)
# RNA: GGGAAUUGAAAACUUUUCCCAAUACCCCGCCGUGACGACUUGCAAUAUAGUCGGCACUGGCAAUUUUUGACAGUCUCUACGGAGACUG
# B4: U4ΔSm (structured_RNA)
# RNA: B3 RNA with U64C, U65C, U66C, U67C, U68C
# B5: U4-5'ss (structured_RNA)
# RNA: GGGAAUUGAAAACUUUUCCCAAUACCCCAAUUUUUGACAGUCUCUACGGAGACUG
# B6: U4-3'Δ (structured_RNA)
# RNA: GGGAAUUGAAAACUUUUCCCAAUACCCCGCCGUGACGACUUGCAAUAUAGUCGGCACUGGCAAUUUUUGAC
# Assays:
# [1] = target: T1, SmD1s (Sm fold);SmD2;SmF;SmE;SmG;SmD3 (Sm fold);SmB (Sm fold) (human;human;human;human;human;human;huma …, UniProt P62314;P62316;P62306;P62304;P62308;P62318;P14678 …, del83-119||||||); assay: GFC/SDS-PAGE; 7SΔN + SmD3/B input; complete core, Gemin2ΔN39/SMNGe2BD released; EMSA: 20 mM Tris-HCl pH 8.0, 250 mM NaCl, 2 mM MgCl2, 1 mM EDTA, 1 mM DTT, 37 C 40 min, RNA 50 pM and complex 2.5-10 pM as printed; GFC assembly assay conditions not in the material; settings: protein: recombinant;recombinant;recombinant;recombinant;recombinant;recombinant;recombinant; copies: 1;1;1;1;1;1;1; stem-loops flank the Sm site
# [2] = target: T1, SmD1s (Sm fold);SmD2;SmF;SmE;SmG;SmD3 …; assay: GFC/SDS-PAGE; 7SΔN + SmD3/B input; core formation to completion; EMSA: 20 mM Tris-HCl pH 8.0, 250 mM NaCl, 2 mM MgCl2, 1 mM EDTA, 1 mM DTT, 37 C 40 min, RNA 50 pM and complex 2.5-10 pM as printed; GFC assembly assay conditions not in the material; settings: protein: recombinant;recombinant;recombinant;recombinant;recombinant;recombinant;recombinant; copies: 1;1;1;1;1;1;1; stem-loops; 3 nt spacer 5' of Sm site
# SmD1;SmD2;SmF;SmE;SmG [3] = target: T2, SmD1;SmD2;SmF;SmE;SmG (human;human;human;human;human, UniProt P62314;P62316;P62306;P62304;P62308 1-119;1-118;1-86;1-92;1-76, ||||); assay: GFC; 5Sm without Gemin2; EMSA: 20 mM Tris-HCl pH 8.0, 250 mM NaCl, 2 mM MgCl2, 1 mM EDTA, 1 mM DTT, 37 C 40 min, RNA 50 pM and complex 2.5-10 pM as printed; GFC assembly assay conditions not in the material; settings: protein: recombinant;recombinant;recombinant;recombinant;recombinant, copies: 1;1;1;1;1
# SmD1s (Sm …) [4] = target: T3, SmD1s (Sm fold);SmD2;SmF;SmE;SmG;Gemin2ΔN39;SMNGe2BD (human;human;human;human;human;human;huma …, UniProt P62314;P62316;P62306;P62304;P62308;O14893;Q16637 …, del83-119|||||del1-39|); assay: EMSA; 7SΔN; Sm subcore formed; EMSA: 20 mM Tris-HCl pH 8.0, 250 mM NaCl, 2 mM MgCl2, 1 mM EDTA, 1 mM DTT, 37 C 40 min, RNA 50 pM and complex 2.5-10 pM as printed; GFC assembly assay conditions not in the material; settings: protein: recombinant;recombinant;recombinant;recombinant;recombinant;recombinant;recombinant; copies: 1;1;1;1;1;1;1; 5' and 3' stem-loops flank the Sm site
# SmD1s (Sm …) [5] = target: T3, SmD1s (Sm …); assay: GFC/SDS-PAGE; 7SΔN; EMSA: 20 mM Tris-HCl pH 8.0, 250 mM NaCl, 2 mM MgCl2, 1 mM EDTA, 1 mM DTT, 37 C 40 min, RNA 50 pM and complex 2.5-10 pM as printed; GFC assembly assay conditions not in the material; settings: protein: recombinant;recombinant;recombinant;recombinant;recombinant;recombinant;recombinant, copies: 1;1;1;1;1;1;1
# SmD1;SmD2;SmF;SmE;SmG [6] = target: T2, SmD1;SmD2;SmF;SmE;SmG; assay: GFC/SDS-PAGE; 5Sm without Gemin2; EMSA: 20 mM Tris-HCl pH 8.0, 250 mM NaCl, 2 mM MgCl2, 1 mM EDTA, 1 mM DTT, 37 C 40 min, RNA 50 pM and complex 2.5-10 pM as printed; GFC assembly assay conditions not in the material; settings: protein: recombinant;recombinant;recombinant;recombinant;recombinant; copies: 1;1;1;1;1
# SmD1s (Sm …) [7] = target: T3, SmD1s (Sm …); assay: GFC/SDS-PAGE; 7SΔN; Gemin2 starts to be released; EMSA: 20 mM Tris-HCl pH 8.0, 250 mM NaCl, 2 mM MgCl2, 1 mM EDTA, 1 mM DTT, 37 C 40 min, RNA 50 pM and complex 2.5-10 pM as printed; GFC assembly assay conditions not in the material; settings: protein: recombinant;recombinant;recombinant;recombinant;recombinant;recombinant;recombinant; copies: 1;1;1;1;1;1;1; 3' stem-loop
# SmD1s (Sm …) [8] = target: T3, SmD1s (Sm …); assay: GFC; 7SΔN; EMSA: 20 mM Tris-HCl pH 8.0, 250 mM NaCl, 2 mM MgCl2, 1 mM EDTA, 1 mM DTT, 37 C 40 min, RNA 50 pM and complex 2.5-10 pM as printed; GFC assembly assay conditions not in the material; settings: protein: recombinant;recombinant;recombinant;recombinant;recombinant;recombinant;recombinant; copies: 1;1;1;1;1;1;1; single-stranded
binder,measurement,setting,value
B1,binding result,[1],binds
B2,binding result,[2],binds
AAUUUUUGA (ssRNA) [9nt Sm site],binding result,SmD1;SmD2;SmF;SmE;SmG [3]; single-stranded,binds
GGCAAUUUUUGACAGUCUCUACGGAGACUG (structured_RNA) [U4-5'Δ],binding result,SmD1;SmD2;SmF;SmE;SmG [3]; 3' stem-loop,binds
B3,binding signal,SmD1s (Sm …) [4],~2 fold vs 7S
B4,binding result,SmD1s (Sm …) [5]; 5' and 3' stem-loops,no binding
GGGAAUUGAAAACUUUUCCCAAUACCCCAAUUUUUGA (ssRNA) [3'Sm],binding result,SmD1s (Sm …) [5],no binding
same,binding result,SmD1;SmD2;SmF;SmE;SmG [6],binds
B5,binding result,SmD1s (Sm …) [7],binds
same,binding result,SmD1;SmD2;SmF;SmE;SmG [3]; 3' stem-loop,binds
B6,binding result,SmD1s (Sm …) [5]; 5' stem-loop,no binding
GGCAAUUUUUGACAGUCUCUACGCUCUGAC (ssRNA) [U4-5'Δ-3'ss],binding result,SmD1s (Sm …) [8],binds
